To fix the notation:
B1: MPH12 VH-FRGL / MPH12 VL-FRGL (antibody, V domains shown)
VH: QVQLVESGGGLVKPGGSLRLSCAASGFTFSGFYMKWIRQAPGKGLEWVSSISASGSYTNYADSVEGRFTISRDNAKNSLYLQMNSLRAEDTAVYYCARGDSYCGASACHGEFFHKWGQGTLVTVSS
VL: QSVLTQPPSVSGAPGQRVTISCTGSDSNIGADFDVHWYQQLPGTAPKLLIYGNINRPSGVPDRFSGSKSGTSASLAITGLQAEDEADYYCQSYDRSLHYVFGTGTKVTVL
notes: MPH12 variant; VH and VL only
B2: MPH12 VH-D62E / MPH12 VL-S26A (antibody, V domains shown)
VH: QVQLVESGGGLVKPGGSLRLSCVASGFTFSGFYMKWIRQAPGKGLEWVSSISASGSYTNYAESVEGRFTVSRDNAKNSLFLLMSSLRAEDTAVYYCARGDSYCGASACHGEFFHKWGQGTLVTVSS
VL: QSVLTQPPSVSGAPGQRVTISCTGSDANIGADFDVHWYQQLPGTAPKLLIYGNINRPSGVPDRFSGSRSGTSAFLAITRLQAEDEADYYCQSYDRSLHYVFGAGTKVTVL
notes: MPH12 variant; VH and VL only
B3: MPH12 VH-D62E / MPH12 VL-D25E (antibody, V domains shown)
VH: QVQLVESGGGLVKPGGSLRLSCVASGFTFSGFYMKWIRQAPGKGLEWVSSISASGSYTNYAESVEGRFTVSRDNAKNSLFLLMSSLRAEDTAVYYCARGDSYCGASACHGEFFHKWGQGTLVTVSS
VL: QSVLTQPPSVSGAPGQRVTISCTGSESNIGADFDVHWYQQLPGTAPKLLIYGNINRPSGVPDRFSGSRSGTSAFLAITRLQAEDEADYYCQSYDRSLHYVFGAGTKVTVL
notes: MPH12 variant; VH and VL only
B4: MPH12 VH-D62E / MPH12 VL-D25S (antibody, V domains shown)
VH: QVQLVESGGGLVKPGGSLRLSCVASGFTFSGFYMKWIRQAPGKGLEWVSSISASGSYTNYAESVEGRFTVSRDNAKNSLFLLMSSLRAEDTAVYYCARGDSYCGASACHGEFFHKWGQGTLVTVSS
VL: QSVLTQPPSVSGAPGQRVTISCTGSSSNIGADFDVHWYQQLPGTAPKLLIYGNINRPSGVPDRFSGSRSGTSAFLAITRLQAEDEADYYCQSYDRSLHYVFGAGTKVTVL
notes: MPH12 variant; VH and VL only
B5: MPH12 VH-S63A / MPH12 VL-FRGL (antibody, V domains shown)
VH: QVQLVESGGGLVKPGGSLRLSCVASGFTFSGFYMKWIRQAPGKGLEWVSSISASGSYTNYADAVEGRFTVSRDNAKNSLFLLMSSLRAEDTAVYYCARGDSYCGASACHGEFFHKWGQGTLVTVSS
VL: QSVLTQPPSVSGAPGQRVTISCTGSDSNIGADFDVHWYQQLPGTAPKLLIYGNINRPSGVPDRFSGSKSGTSASLAITGLQAEDEADYYCQSYDRSLHYVFGTGTKVTVL
notes: MPH12 variant; VH and VL only
B6: MPH12 VH-FRGL / MPH12 VL (antibody, V domains shown)
VH: QVQLVESGGGLVKPGGSLRLSCAASGFTFSGFYMKWIRQAPGKGLEWVSSISASGSYTNYADSVEGRFTISRDNAKNSLYLQMNSLRAEDTAVYYCARGDSYCGASACHGEFFHKWGQGTLVTVSS
VL: QSVLTQPPSVSGAPGQRVTISCTGSDSNIGADFDVHWYQQLPGTAPKLLIYGNINRPSGVPDRFSGSRSGTSAFLAITRLQAEDEADYYCQSYDRSLHYVFGAGTKVTVL
notes: MPH12 variant; VH and VL only
B7: MPH12 VH-FRGL / MPH12 VL-D25S (antibody, V domains shown)
VH: QVQLVESGGGLVKPGGSLRLSCAASGFTFSGFYMKWIRQAPGKGLEWVSSISASGSYTNYADSVEGRFTISRDNAKNSLYLQMNSLRAEDTAVYYCARGDSYCGASACHGEFFHKWGQGTLVTVSS
VL: QSVLTQPPSVSGAPGQRVTISCTGSSSNIGADFDVHWYQQLPGTAPKLLIYGNINRPSGVPDRFSGSRSGTSAFLAITRLQAEDEADYYCQSYDRSLHYVFGAGTKVTVL
notes: MPH12 variant; VH and VL only
B8: MPH12 VH-FRGL / MPH12 VL-D25E (antibody, V domains shown)
VH: QVQLVESGGGLVKPGGSLRLSCAASGFTFSGFYMKWIRQAPGKGLEWVSSISASGSYTNYADSVEGRFTISRDNAKNSLYLQMNSLRAEDTAVYYCARGDSYCGASACHGEFFHKWGQGTLVTVSS
VL: QSVLTQPPSVSGAPGQRVTISCTGSESNIGADFDVHWYQQLPGTAPKLLIYGNINRPSGVPDRFSGSRSGTSAFLAITRLQAEDEADYYCQSYDRSLHYVFGAGTKVTVL
notes: MPH12 variant; VH and VL only
B9: MPH12 VH-S63A / MPH12 VL-D25E (antibody, V domains shown)
VH: QVQLVESGGGLVKPGGSLRLSCVASGFTFSGFYMKWIRQAPGKGLEWVSSISASGSYTNYADAVEGRFTVSRDNAKNSLFLLMSSLRAEDTAVYYCARGDSYCGASACHGEFFHKWGQGTLVTVSS
VL: QSVLTQPPSVSGAPGQRVTISCTGSESNIGADFDVHWYQQLPGTAPKLLIYGNINRPSGVPDRFSGSRSGTSAFLAITRLQAEDEADYYCQSYDRSLHYVFGAGTKVTVL
notes: MPH12 variant; VH and VL only
B10: MPH12 VH-D62E / MPH12 VL (antibody, V domains shown)
VH: QVQLVESGGGLVKPGGSLRLSCVASGFTFSGFYMKWIRQAPGKGLEWVSSISASGSYTNYAESVEGRFTVSRDNAKNSLFLLMSSLRAEDTAVYYCARGDSYCGASACHGEFFHKWGQGTLVTVSS
VL: QSVLTQPPSVSGAPGQRVTISCTGSDSNIGADFDVHWYQQLPGTAPKLLIYGNINRPSGVPDRFSGSRSGTSAFLAITRLQAEDEADYYCQSYDRSLHYVFGAGTKVTVL
notes: MPH12 variant; VH and VL only
B11: MPH12 VH-FRGL / MPH12 VL-S26A (antibody, V domains shown)
VH: QVQLVESGGGLVKPGGSLRLSCAASGFTFSGFYMKWIRQAPGKGLEWVSSISASGSYTNYADSVEGRFTISRDNAKNSLYLQMNSLRAEDTAVYYCARGDSYCGASACHGEFFHKWGQGTLVTVSS
VL: QSVLTQPPSVSGAPGQRVTISCTGSDANIGADFDVHWYQQLPGTAPKLLIYGNINRPSGVPDRFSGSRSGTSAFLAITRLQAEDEADYYCQSYDRSLHYVFGAGTKVTVL
notes: MPH12 variant; VH and VL only
B12: MPH12 VH-D62E / MPH12 VL-FRGL (antibody, V domains shown)
VH: QVQLVESGGGLVKPGGSLRLSCVASGFTFSGFYMKWIRQAPGKGLEWVSSISASGSYTNYAESVEGRFTVSRDNAKNSLFLLMSSLRAEDTAVYYCARGDSYCGASACHGEFFHKWGQGTLVTVSS
VL: QSVLTQPPSVSGAPGQRVTISCTGSDSNIGADFDVHWYQQLPGTAPKLLIYGNINRPSGVPDRFSGSKSGTSASLAITGLQAEDEADYYCQSYDRSLHYVFGTGTKVTVL
notes: MPH12 variant; VH and VL only
B13: MPH12 VH-S63A / MPH12 VL-S26A (antibody, V domains shown)
VH: QVQLVESGGGLVKPGGSLRLSCVASGFTFSGFYMKWIRQAPGKGLEWVSSISASGSYTNYADAVEGRFTVSRDNAKNSLFLLMSSLRAEDTAVYYCARGDSYCGASACHGEFFHKWGQGTLVTVSS
VL: QSVLTQPPSVSGAPGQRVTISCTGSDANIGADFDVHWYQQLPGTAPKLLIYGNINRPSGVPDRFSGSRSGTSAFLAITRLQAEDEADYYCQSYDRSLHYVFGAGTKVTVL
notes: MPH12 variant; VH and VL only
B14: MPH12 VH-S63A / MPH12 VL-D25S (antibody, V domains shown)
VH: QVQLVESGGGLVKPGGSLRLSCVASGFTFSGFYMKWIRQAPGKGLEWVSSISASGSYTNYADAVEGRFTVSRDNAKNSLFLLMSSLRAEDTAVYYCARGDSYCGASACHGEFFHKWGQGTLVTVSS
VL: QSVLTQPPSVSGAPGQRVTISCTGSSSNIGADFDVHWYQQLPGTAPKLLIYGNINRPSGVPDRFSGSRSGTSAFLAITRLQAEDEADYYCQSYDRSLHYVFGAGTKVTVL
notes: MPH12 variant; VH and VL only
B15: MPK174-v2 (antibody, V domains shown)
VH: EVQLVESGGGLVKPGGSLRLSCAASRFKFGDYYMSWIRQAPGKGLEWVSNISPSSSYTNYADSVKGRFTISRDNAKNLLYLQMNSLRAEDTAVYYCARESCSGGSCSLHGMDVWGQGTTVTVAS
VL: QSVLTQPPSVSGAPGQRVTISCTGSSSNIGAGYDVHWYQQLPGTAPKLLIYDNSNRPSGVPDRFSGSKSGTSASLAITGLRAEDDADYYCQSYDRSLGGSIFGGGTKLTVL
notes: VH and VL only
B16: MPK196 (antibody, V domains shown)
VH: QVQLVESGGGLVKPGGSLRLSCAASRFKFGDYYMSWIRQAPGKGLEWVSNISPSSSYTNYADSVKGRFTISRDNANNLLYLQMNSLRAEDTAVYYCARESCSGGSCSLHGMDVWGQGTTVTVAS
VL: QSVLTQPPSVSGAPGQRVTISCTGSSSNIGAGYDVHWYQQLPGTAPKLLIYDNSNRPSGVPDRFSGSKSGTSASLAITGLRAEDDADYYCQSYDRSLGGSIFGGGTKLTVL
notes: VH and VL only
B17: MPK155 (antibody, V domains shown)
VH: EVQLVESGGGLVKPGGSLRLSCEASGISLSGYYMIWIRQAPGKGLEWISSISSSSNYIDYADSVRGRFTISRHNGQNTLYLQMNSLRVEDTAVYFCATEQTPSPGPFDLWGQGILVTVSS
VL: QSVLTQPPSVSGAPGQRVTIFCTGTSSNLGAGYDVHWYQQFPGTSPKLLIYRYTNRPSGVPDRFSGSKSGSSASLAIAGLQAEDEADYYCQSYDRSVSGWVFGGGTKLTVL
notes: VH and VL only
B18: MPK204 (antibody, V domains shown)
VH: QVQLVESGGGLVKPGGSLRLSCEASGLSLSGYYMIWIRQAPGKGLEWISSISSSSNYIDYADSVKGRFTISRHNGQNTLYLQMNSLRVEDTAVYYCATEQTPSPGPFDLWGQGTLVTVSS
VL: QSVLTQPPSVSGAPGQRVTISCTGTSSNIGTGYDVHWYQQFPGTSPKLLIYRNTNRPSGVPDRFSGSKSGSSASLAIAGLQAEDEADYYCQSYDRSVSGWVFGGGTKLTVL
notes: VH and VL only
B19: MPK157 (antibody, V domains shown)
VH: EVQLVESGGGLVKPGGSLRLSCSASGFTLSGYNMNWVRQAPGKGLEWISYISASSSYINYADSVKGRFTISRDNGRSSLYLQMNSLRAEDTAVYFCTTQAELPGWFDPWGQGTLVTVSS
VL: QSVLTQPPSMSGAPGQRVTISCTGSSSNIGAGYDVNWYRQLPGTAPQLLIYRNTNRPSGVPDRFSGSNSGTSASLAITGLQADDEAHYYCQSYDRSLSGWVFGGGTKLTVL
notes: VH and VL only
B20: MPK162 (antibody, V domains shown)
VH: EVQLVESGGGLVKPGDSLRLSCAASGFSLSSYYMFWIRQAPGKGLEWVSDISGGSTFTNYADSVKGRFTISRDNAKKVLYLQMNSLRVDDSAVYYCVRGSSISPNWFESWGQGALVTVSS
VL: QSVLTQPPSVSGAPGQRVTISCTGTSSNIGAGYDVHWYQQVPGTAPKLLIYGNSNRPSGVPDRFSGSKSGTAASLAINGLQTEDEAEYYCQSYDRSLTGSYVFGSGTRVFVR
notes: VH and VL only
B21: MPK158 (antibody, V domains shown)
VH: EVQLVESGGGLVKPGGSLRLSCAASGFSISGFYMIWIRQAPGKGLEWISDISASSSYIDYADSVKGRFTISRDNGQNTVHLLMNNLRADDTGVYYCAREQTPSPGPFDLWGQGTLVTVST
VL: QPVLTQPPSVSGAPGQRVTISCTGRSSNIGAGYDVHWYQHLPGTSPKLLIYRNSNRPSGVPDRFSGSTSGTSASLAITGLQADDEADYYCQAYDRILGGWAFGGGTKLTVL
notes: VH and VL only

One assay concerns the target T1, DS-Cav1 RSV F (respiratory syncytial virus).
T1 construct: also called DC-VCav1
Kind of assay: ELISA on DS-Cav1 RSV F. For orientation: In an ELISA, binding on a coated surface is turned into a signal by an enzyme label.
Regarding B1, the EC50 (usually the concentration giving half of the maximal effect) is 0.0305 µg/mL.

B2 returned an EC50 of 0.031 µg/mL. As to B3, the concentration for a half-maximal effect (EC50) is 0.0274 µg/mL.

The molecule B4 showed an EC50 of 0.0236 µg/mL. B5 gave an EC50 of 0.0254 µg/mL. The same measure, in the same setting: to B6 belongs 0.0328 µg/mL; to B7, 0.0219 µg/mL; to B8, 0.034 µg/mL.

B9 returned an EC50 of 0.0406 µg/mL. For B10, the EC50 worked out at 0.0241 µg/mL. For B11, the EC50 was determined as 0.0397 µg/mL. B12: the EC50 is 0.0267 µg/mL. In turn, B13 yielded an EC50 of 0.0258 µg/mL. Same read-out and setting: to B14 belongs 0.0249 µg/mL.

A further assay deals with RSV fusion glycoprotein (RSV-F) (respiratory syncytial virus). Put plainly: SPR; F protein loaded on streptavidin sensors, mAb in solution. For orientation: Surface plasmon resonance follows binding to a sensor surface in real time, without labels.
Experimental: Binding affinity of mAbs for RSV-F protein, MPV-F D280 protein, and MPV-F N280 F variant protein was assessed using surface plasmon resonance (SPR).
Regarding B15, the Kd (in general, the equilibrium constant for the complex coming apart) is 1 pM. As for B16, the Kd was found to be 1 pM.

Turning to B17, the Kd was found to be 6.3 pM.

Molecule B18 returned a Kd of 290 pM. In the case of B19, the Kd turned out to be 1 pM. B20 yielded a Kd of 100000 pM. Still for that read-out and setting: as for B21, the figure is 1 pM.
